According to patent US20150198603A1 (TORAY INDUSTRIES, published 2015):

What was measured:
[1] = biological target: T1, human CAPRIN-1 as expressed on human breast cancer cell line MDA-MB-231V and in human cancer tissues (human, UniProt Q14444 2-709); assay: flow cytometry on MDA-MB-231V cells expressing CAPRIN-1
T1 construct: whole, on cells; Endogenous protein on cells (flow cytometry) or in paraffin tissue sections (immunohistochemistry); also called CAPRIN-1 on the surface of breast cancer cells; CAPRIN-1 in the breast cancer tissues
T1 sequence (looked up): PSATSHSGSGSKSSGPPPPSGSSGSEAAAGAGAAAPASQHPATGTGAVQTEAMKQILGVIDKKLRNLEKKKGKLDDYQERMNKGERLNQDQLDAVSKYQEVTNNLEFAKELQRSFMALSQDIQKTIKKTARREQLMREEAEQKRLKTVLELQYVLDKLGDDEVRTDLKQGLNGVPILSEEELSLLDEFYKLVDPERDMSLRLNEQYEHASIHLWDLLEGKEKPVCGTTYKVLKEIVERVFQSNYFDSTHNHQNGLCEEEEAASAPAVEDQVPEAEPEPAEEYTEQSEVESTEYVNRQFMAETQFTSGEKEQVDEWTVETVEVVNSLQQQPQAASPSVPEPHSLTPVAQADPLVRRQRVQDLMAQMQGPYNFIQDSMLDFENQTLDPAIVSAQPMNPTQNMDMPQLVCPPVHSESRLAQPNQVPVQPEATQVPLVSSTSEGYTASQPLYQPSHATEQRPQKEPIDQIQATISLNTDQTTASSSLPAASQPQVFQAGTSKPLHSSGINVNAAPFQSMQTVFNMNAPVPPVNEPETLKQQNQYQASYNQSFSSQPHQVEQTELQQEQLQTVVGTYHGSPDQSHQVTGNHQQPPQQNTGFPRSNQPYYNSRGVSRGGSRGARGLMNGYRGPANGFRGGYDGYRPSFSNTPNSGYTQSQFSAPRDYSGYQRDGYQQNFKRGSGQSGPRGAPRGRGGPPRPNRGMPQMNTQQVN
Description: Next, these monoclonal antibodies were screened for antibodies reactive with the surface of breast cancer cells expressing CAPRIN-1. Specifically, 5×10⁵ cells of a human breast cancer cell line MDA-MB-231V were centrifuged in a 1.5-mL microcentrifuge tube. 100 μL of the culture supernatant of each hybridoma obtained above was added thereto and left standing for 1 hour on ice. After washing with PBS, FITC-labeled goat anti-chicken IgG (H+L) antibodies (SouthernBiotech) diluted 30-fold with PBS containing 0.1% FBS were added thereto and left standing for 1 hour on ice. After washing with PBS, the fluorescence intensity was measured using FACSCalibur (Becton, Dickinson and Company). On the other hand, the same operation as above was performed using a medium for hybridoma culture to prepare a control sample. As a result, 1 monoclonal antibody (chicken anti-human CAPRIN-1 monoclonal antibody #11) having stronger fluorescence intensity than that of the control, i.e., reactive with the surface of breast cancer cells expressing CAPRIN-1, was selected.

[2] = biological target: T2, peptide consisting of the amino acid sequence shown in SEQ ID NO: 66 (partial CAPRIN-1 sequence) (human); assay: told from the digestion and MS/MS experiment done with #12
T2 peptide: QQPQAASPSVPE
Description: The cancer cell surface-reactive mouse-chicken chimeric anti-human CAPRIN-1 monoclonal antibody #12 obtained in the paragraph (4) was used to identify a CAPRIN-1 epitope region recognized thereby. 100 μg of recombinant CAPRIN-1 proteins was dissolved in a […] dissolving buffer and reacted with the monoclonal antibody #12. To this solution, a digestive enzyme trypsin or chymotrypsin was added, followed by digestion reaction at a proper temperature. After the reaction, a protein G Sepharose carrier was added thereto, then reacted, and precipitated by centrifugation operation. After removal of the supernatant, the carrier was washed with a dissolving buffer and PBS and dissolved in 0.1% formic acid, and the supernatant was recovered. The recovered supernatant sample was applied to a reverse-phase column (HLB Extraction Cartridge (Waters-OASIS)) to obtain an antibody-free sample solution. The obtained sample was subjected to reverse-phase liquid chromatography (Chromatography Nanosytem (KYA Technologies Corp.)) to recover a solution containing only peptides. The solution was introduced to a tandem-type mass spectrometer Quadrupole-TOF Mass Spectrometer (Waters-MicroMass) and analyzed by MS/MS to detect the peptides contained in the sample. […]

[3] = biological target: T3, human CAPRIN-1 having the amino acid sequence shown in SEQ ID NO: 2 (recombinant, as prepared in Example 3 of … (human, UniProt Q14444 1-709)); assay: ELISA, plate coated with 1 µg/mL CAPRIN-1, hybridoma supernatant
T3 construct: limits and tags of the recombinant construct are described only in WO2010/016526; also called recombinant CAPRIN-1; CAPRIN-1 solution
T3 sequence: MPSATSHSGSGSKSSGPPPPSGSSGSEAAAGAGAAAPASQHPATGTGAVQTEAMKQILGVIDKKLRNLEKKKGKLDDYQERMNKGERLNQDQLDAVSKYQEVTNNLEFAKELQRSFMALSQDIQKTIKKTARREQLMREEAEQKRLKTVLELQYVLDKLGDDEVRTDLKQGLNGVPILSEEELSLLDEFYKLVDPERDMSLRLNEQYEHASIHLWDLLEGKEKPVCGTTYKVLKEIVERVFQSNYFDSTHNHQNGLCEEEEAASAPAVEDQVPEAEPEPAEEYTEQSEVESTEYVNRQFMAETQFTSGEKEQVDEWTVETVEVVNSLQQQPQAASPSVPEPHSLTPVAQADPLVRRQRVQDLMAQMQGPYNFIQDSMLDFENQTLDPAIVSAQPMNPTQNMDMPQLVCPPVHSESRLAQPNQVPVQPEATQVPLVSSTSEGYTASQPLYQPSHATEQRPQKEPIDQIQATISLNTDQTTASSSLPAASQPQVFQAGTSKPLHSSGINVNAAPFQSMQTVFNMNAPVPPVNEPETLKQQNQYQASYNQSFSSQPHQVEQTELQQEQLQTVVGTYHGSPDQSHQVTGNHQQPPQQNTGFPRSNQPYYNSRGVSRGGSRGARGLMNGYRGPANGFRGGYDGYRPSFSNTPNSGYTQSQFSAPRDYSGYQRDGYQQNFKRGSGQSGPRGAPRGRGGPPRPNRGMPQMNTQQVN
Description: The prepared hybridomas were screened with the binding affinity of antibodies produced by the hybridomas against CAPRIN-1 as an indicator. The 1 μg/mL CAPRIN-1 solution was added to a 96-well plate at 100 μL/well and left standing at 4° C. for 18 hours. Each well was washed three times with PBS-T. Then, a 0.5% bovine serum albumin (BSA) solution (Sigma-Aldrich Corp.) was added thereto at 400 μL/well and left standing at room temperature for 3 hours. The solution in each well was discarded, and each well was washed three times with 400 μL of PBS-T. Then, the culture supernatant of each hybridoma obtained above was added thereto at 100 μL/well and left standing at room temperature for 2 hours. Each well was washed three times with PBS-T. Then, HRP-labeled anti-chicken IgY antibodies (Sigma-Aldrich Corp.) diluted 5000-fold with PBS were added thereto at 100 μL/well and left standing at room temperature for 1 hour. Each well was washed three times with PBS-T. Then, a TMB substrate solution (Thermo Fisher Scientific Inc.) was added thereto at 100 μL/well and left standing for 15 to 30 minutes to cause color reaction. […] The absorbance was measured at 450 nm and 595 nm using an absorption spectrometer. As a result, several hybridomas producing antibodies having high absorbance were selected as candidate lines of the hybridoma of interest.

Measured: binding result

B1: chicken anti-human CAPRIN-1 monoclonal antibody #11 (antibody, V domains shown)
VH: AVTLDESGGGLQMSRGGLSLVCKASGFDFSSYQMNWIRQAPGKGLEFVAAINKFGNSTGHGAAVKGRVTISRDNGQSTVRLQLNNLRAEDTAIYFCTKHAYGYCGSGTWCAAGEIDAWGHGTEVIVSS
VL: QAASTQPSSVSANPGETVEITCSGGGSYSYGWFQQKSPGSAPVTVIYYNNKRPSDIPSRFSGSKSGSTGTLTITGVQADDEAVYYCGSGDSTDTAVFGAGTTLTVLG
notes: Chicken hybridoma antibody; also called chicken monoclonal antibody #11
binds: all assays above
